pKd: −log10 of the molar value. Each block holds one substance with its values, some of them ahead of it.
Assays:
soluble Fc-tagged VEGFR3 = assay: ELISA
decorin protein core = decorin protein core (UniProt P07585); assay: ELISA

decorin protein core, sequence (P07585 31-359): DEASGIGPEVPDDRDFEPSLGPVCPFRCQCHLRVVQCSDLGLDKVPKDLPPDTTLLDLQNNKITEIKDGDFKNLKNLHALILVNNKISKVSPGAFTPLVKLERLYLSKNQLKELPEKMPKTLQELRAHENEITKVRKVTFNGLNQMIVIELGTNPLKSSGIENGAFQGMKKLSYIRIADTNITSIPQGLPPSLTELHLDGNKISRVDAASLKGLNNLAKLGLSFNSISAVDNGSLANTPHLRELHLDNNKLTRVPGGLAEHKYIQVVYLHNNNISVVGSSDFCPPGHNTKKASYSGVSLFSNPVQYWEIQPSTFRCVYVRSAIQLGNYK

percent of bound decorin protein core displaced (soluble Fc-tagged VEGFR3): 20%
Substance: VEGFC (from UniProt P49767 32-227) (ligand)

pKd (soluble Fc-tagged VEGFR3): 7.57
Substance: decorin protein core (from UniProt P07585 31-359) (natural protein)

pKd (decorin protein core): 7.33
Substance: soluble Fc-tagged VEGFR3 (Fc fusion)
